Test results: patent US20140141011A1 (SCHERING, published 2014)
“And” between values parts separate entries of the source, which are not always exact repeats. Equal values may be shown once.

B1: Cyno-ized anti-human TSLP 23B12 antibody (antibody)
heavy: SQVQLVESGGGVVQPGRSLRLSCAASGYIFTDYAMHWVRQAPGKGLEWVATFIPLLDTSDYNQNFKGRFTISRDNSKNTLYLQMNSLRAEDTAVYYCARMGVTHSYVMDAWGQGTLVTVSSASTKGPSVFPLAPSSRSTSESTAALGCLVKDYFPEPVTVSWNSGSLTSGVHTFPAVLQSSGLYSLSSVVTVPSSSLGTQTYVCNVNHKPSNTKVDKRVEIKTCGGGSKPPTCPPCPAPELLGGPSVFLFPPKPKDTLMISRTPEVTCVVVDVSQEDPDVKFNWYVNGAEVHHAQTKPRETQYNSTYRVVSVLTVTHQDWLNGKEYTCKVSNKALPAPIQKTISKDKGQPREPQVYTLPPSREELTKNQVSLTCLVKGFYPSDIVVEWESSGQPENTYKTTPPVLDSDGSYFLYSKLTVDKSRWQQGNVFSCSVMHEALHNHYTQKSLSLSPGK
light: DIQMTQSPSSLSASVGDRVTITCRASQPISISVHWYQQKPGKAPKLLIYFASQSISGVPSRFSGSGSGTDFTLTISSLQPEDFATYYCQQTFSLPYTFGQGTKVEIKRTVAAPSVFIFPPSEDQVKSGTVSVVCLLNNFYPREASVKWKVDGVLKTGNSQESVTEQDSKDNTYSLSSTLTLSSTDYQSHNVYACEVTHQGLSSPVTKSFNRGEC
notes: Rat 23B12 CDRs on human VL kappa-I / VH-III frameworks fused to cynomolgus IgG constant domains, produced in CHO cells; also called cy23B12; Cynoized anti hTSLP mAb 23B12 (782+MAFA19/781MAFA7)
B2: cy-hu: cyno-ized 23B12 VL/VH on human constant domains (antibody)
heavy: not shown
light: DIQMTQSPSSLSASVGDRVTITCRASQPISISVHWYQQKPGKAPKLLIYFASQSISGVPSRFSGSGSGTDFTLTISSLQPEDFATYYCQQTFSLPYTFGQGTKVEIKRTVAAPSVFIFPPSDEQLKSGTASVVCLLNNFYPREAKVQWKVDNALQSGNSQESVTEQDSKDSTYSLSSTLTLSKADYEKHKVYACEVTHQGLSSPVTKSFNRGEC
notes: also called cy-hu23B12; Cynoized anti hTSLP mAb 23B12 (782+hIgG1/781hukappa)
B3: hu-cy: humanized 23B12 VL/VH on cynomolgus constant domains (antibody)
heavy: QVQLVQSGAEVKKPGASVKVSCKASGYIFTDYAMHWVRQAPGQGLEWMGTFIPLLDTSDYNQNFKGRVTMTTDTSTSTAYMELRSLRSDDTAVYYCARMGVTHSYVMDAWGQGTLVTVSSASTKGPSVFPLAPSSRSTSESTAALGCLVKDYFPEPVTVSWNSGSLTSGVHTFPAVLQSSGLYSLSSVVTVPSSSLGTQTYVCNVNHKPSNTKVDKRVEIKTCGGGSKPPTCPPCPAPELLGGPSVFLFPPKPKDTLMISRTPEVTCVVVDVSQEDPDVKFNWYVNGAEVHHAQTKPRETQYNSTYRVVSVLTVTHQDWLNGKEYTCKVSNKALPAPIQKTISKDKGQPREPQVYTLPPSREELTKNQVSLTCLVKGFYPSDIVVEWESSGQPENTYKTTPPVLDSDGSYFLYSKLTVDKSRWQQGNVFSCSVMHEALHNHYTQKSLSLSPGK
light: EIVLTQSPGTLSLSPGERATLSCRASQPISISVHWYQQKPGQAPRLLIYFASQSISGIPDRFSGSGSGTDFTLTISRLEPEDFAVYYCQQTFSLPYTFGQGTKVEIKRTVAAPSVFIFPPSEDQVKSGTVSVVCLLNNFYPREASVKWKVDGVLKTGNSQESVTEQDSKDNTYSLSSTLTLSSTDYQSHNVYACEVTHQGLSSPVTKSFNRGEC
notes: also called hu-cy23B12; Cynoized anti hTSLP mAb 23B12 (huV-CynoC chimera)
B4: Rat anti-human TSLP antibody 23B12 (antibody, V domains shown)
VH: EEKLQQSGDDLVRPGAAVKMSCKASGYIFTDYAMHWVKQRPGQGLEWIGTFIPLLDTSDYNQNFKGRATLTADKSSNTAYMELSRLTSEDSAVYYCARMGVTHSYVMDAWGQGASVTVSS
VL: DIVLTQSPATLSVTPGESVSLSCRASQPISISVHWFQQKSNESPRLLIKFASQSISGIPSRFSGSGSGTDFTLNINRVESEDFSVYYCQQTFSLPYTFGTGTKLELKR
notes: Parental rat monoclonal antibody purified from hybridoma supernatant; the rat constant regions are not (a rat IgG2a isotype control is used beside it; the VL is of the kappa subclass); also called r23B12; rat 23B12
B5: Humanized anti hu TSLP mAb 23B12 (VL Y49) (antibody, human IgG1, kappa)
heavy: not shown
light: EIVLTQSPGTLSLSPGERATLSCRASQPISISVHWYQQKPGQAPRLLIYFASQSISGIPDRFSGSGSGTDFTLTISRLEPEDFAVYYCQQTFSLPYTFGQGTKVEIKRTVAAPSVFIFPPSDEQLKSGTASVVCLLNNFYPREAKVQWKVDNALQSGNSQESVTEQDSKDSTYSLSSTLTLSKADYEKHKVYACEVTHQGLSSPVTKSFNRGEC
notes: also called hu23B12(VL Y49); hu23B12
B6: Humanized anti hu TSLP mAb 23B12 (VL K49) (antibody, human IgG1, kappa, V domains shown)
VH: QVQLVQSGAEVKKPGASVKVSCKASGYIFTDYAMHWVRQAPGQGLEWMGTFIPLLDTSDYNQNFKGRVTMTTDTSTSTAYMELRSLRSDDTAVYYCARMGVTHSYVMDAWGQGTLVTVSS
VL: EIVLTQSPGTLSLSPGERATLSCRASQPISISVHWYQQKPGQAPRLLIKFASQSISGIPDRFSGSGSGTDFTLTISRLEPEDFAVYYCQQTFSLPYTFGQGTKVEIKR
notes: Light chain variant of hu23B12 with K at position 49; human IgG1 / kappa; also called hu23B12(VL K49)

Experiments:
[1] = target: T1, Human TSLP (expression host not stated) (human, UniProt Q969D9 29-159); assay: cell-based or functional assay
[2] = target: T1, Human TSLP (expression host not stated, …); assay: summary of Tables 10 and 11 (BIAcore, KinExA, Ba/F3 assay)
[3] = target: T2, Recombinant human TSLP, expressed in E. coli (human, UniProt Q969D9 29-159); assay: KinExA, solution equilibrium, beads coated with biotinylated human TSLP; antigen R&D Systems 1398-TS
T2 construct: also called human TSLP E. coli; E. coli-B (biotinylated)

[4] = target: T3, Cynomolgus monkey TSLP (cynomolgus monkey, UniProt A0A7N9CAT7 29-159); assay: SPR, BIAcore T100, as in Example 5 (TSLP immobilized)
T3 construct: also called cyno TSLP; cynoTSLP

[5] = target: T1, Human TSLP (expression host not stated, …); assay: as above
[6] = target: T2, Recombinant human TSLP, expressed in E. …; assay: KinExA, solution equilibrium, beads coated with biotinylated human TSLP; TSLP from E. coli
[7] = target: T2, Recombinant human TSLP, expressed in E. …; assay: ELISA, TSLP coated on plate, antibody titrated; E. coli-B (biotinylated TSLP)
[8] = target: T4, Recombinant human TSLP, expressed in HEK293 (human, UniProt Q969D9 29-159); assay: ELISA, mean of the 3 rows above (HEK293-B, HEK293, HEK293-F); mean of n = 3: HEK293-B, HEK293 and HEK293-F human TSLP
T4 construct: also called human TSLP HEK293; HEK293-B (biotinylated)

[9] = target: T3, Cynomolgus monkey TSLP; assay: cell-based or functional assay
[10] = target: T2, Recombinant human TSLP, expressed in E. …; assay: cell-based or functional assay
[11] = target: T4, Recombinant human TSLP, expressed in …; assay: cell-based or functional assay
[12] = target: T1, Human TSLP (expression host not stated, …); assay: SPR, BIAcore T100, TSLP amine-coupled to CM5 chip, antibody injected, bivalent analyte model
[13] = target: T3, Cynomolgus monkey TSLP; assay: as above
[14] = target: T4, Recombinant human TSLP, expressed in …; assay: ELISA, TSLP coated on plate, antibody titrated; HEK293-B (biotinylated TSLP)
[15] = target: T1, Human TSLP (expression host not stated, …); assay: ELISA, mean of all 5 rows on human TSLP (HEK293 and E. coli pooled)
[16] = target: T2, Recombinant human TSLP, expressed in E. …; assay: KinExA, solution equilibrium, beads coated with biotinylated human TSLP; antigen R&D Systems 1398-TS; KinExA, not BIAcore
[17] = target: T4, Recombinant human TSLP, expressed in …; assay: ELISA, TSLP coated on plate, antibody titrated; HEK293
[18] = target: T4, Recombinant human TSLP, expressed in …; assay: KinExA, solution equilibrium, beads coated with biotinylated human TSLP; TSLP from HEK293
[19] = target: T2, Recombinant human TSLP, expressed in E. …; assay: ELISA, TSLP coated on plate, antibody titrated; E. coli
[20] = target: T4, Recombinant human TSLP, expressed in …; assay: ELISA, mean of the 12 rows above (HEK293, including HEK293-B and HEK293-F)
[21] = target: T4, Recombinant human TSLP, expressed in …; assay: ELISA, direct coat of 200 ng TSLP instead of 100 ng, antibody titrated; HEK293
[22] = target: T3, Cynomolgus monkey TSLP; assay: ELISA, mean of the 6 rows above (cyno TSLP from HEK293)
[23] = target: T2, Recombinant human TSLP, expressed in E. …; assay: ELISA, direct coat of 200 ng TSLP instead of 100 ng, antibody titrated; E. coli
[24] = target: T2, Recombinant human TSLP, expressed in E. …; assay: ELISA, mean of the 7 rows above (E. coli, including E. coli-B)
[25] = target: T1, Human TSLP (expression host not stated, …); assay: ELISA, mean of all 19 rows on human TSLP (HEK293 and E. coli pooled)
[26] = target: T1, Human TSLP (expression host not stated, …); assay: ELISA, mean of the 5 rows above on human TSLP (HEK293 and E. coli pooled)

Binder | Kd [3] [nM] | Kd [4] | EC50, inhibition of TSLP-induced proliferation of Ba/F3 transfectants; TSLP hu, TSLPR hu [1] [nM] | Kd [5] | Kd [6] [nM] | EC50 [7] | Kd [12] [nM] | Kd [13] [nM] | EC50 [14] [nM] | EC50 [17] [nM] | Kd [18] [nM] | other results
B1 | 0.052 | 1.16 nM and 2.51 nM |  |  |  |  |  |  |  |  |  | EC50, inhibition of TSLP-induced proliferation of Ba/F3 transfectants; TSLP hu, TSLPR cyno [1]: 0.03 nM and 0.05 nM; fold reduction in binding against hu23B12 [2]: 5 fold; fold reduction in binding against parental rat 23B12 [2]: 10 fold
B2 | 0.063 | 1.2 nM | 3.9 | 0.556 nM |  |  |  |  |  |  |  | 
B3 | 0.0014 | 0.114 nM | 5.3 | 0.106 nM |  |  |  |  |  |  |  | 
B4 |  | 0.086 nM and 0.112 nM |  | 0.064 nM and 0.126 nM and 0.114 nM | 0.00047 | 0.4 nM and 0.39 nM | 0.064 | 0.086 | 0.79 | 0.37 | 0.00022 | EC50 [8]: 0.47 nM; EC50 (mean of the 4 rows above), inhibition of TSLP-induced proliferation of Ba/F3-TSLPR-IL7Ra cells; TSLP cyno, HEK293 [9]: 0.56 nM; EC50, inhibition of TSLP-induced proliferation of Ba/F3-TSLPR-IL7Ra cells (Alamar Blue); TSLP cyno, HEK293 [9]: 0.45 nM and 0.42 nM and 0.61 nM and 0.77 nM; EC50 (mean of the 8 rows above), inhibition of TSLP-induced proliferation of Ba/F3-TSLPR-IL7Ra cells; TSLP human, E. coli [10]: 3.01 nM; EC50 (mean of the 5 rows above), inhibition of TSLP-induced proliferation of Ba/F3-TSLPR-IL7Ra cells; TSLP human, HEK293 [11]: 0.11 nM; EC50 [15]: 0.44 nM; Kd [16]: 0.00047 nM
B5 | 0.0017 | 0.132 nM | 7.6 | 0.111 nM | 0.0017 | 0.064 nM and 0.085 nM | 0.111 | 0.132 | 0.22 |  | 0.0021 | EC50 [19]: 0.11 nM and 0.06 nM; EC50 [20]: 0.14 nM; EC50 [21]: 0.073 nM; EC50 [22]: 0.31 nM; EC50 [23]: 0.061 nM and 0.029 nM; EC50 [24]: 0.07 nM; EC50 [25]: 0.11 nM
B6 |  |  |  |  |  | 0.038 nM and 0.05 nM |  |  | 0.12 | 0.034 | 0.001 | EC50 [26]: 0.05 nM
